Measured values as given in publication PMC4367269, “Probing the Acceptor Active Site Organization of the Human Recombinant β1,4-Galactosyltransferase 7 and Design of Xyloside-based Inhibitors” (The Journal of Biological Chemistry, 2015).

T1: hβ4GalT7 (GST-β4GalT7) (Homo sapiens, UniProt Q9UBV7)
T1 construct: gene B4GALT7; truncated soluble form lacking the first 60 N-terminal amino acids (transmembrane domain and part of stem), GST fusion (tag kept), pET-41a(+), E. coli BL21(DE3), glutathione-Sepharose purified
T1 sequence (Q9UBV7 61-327): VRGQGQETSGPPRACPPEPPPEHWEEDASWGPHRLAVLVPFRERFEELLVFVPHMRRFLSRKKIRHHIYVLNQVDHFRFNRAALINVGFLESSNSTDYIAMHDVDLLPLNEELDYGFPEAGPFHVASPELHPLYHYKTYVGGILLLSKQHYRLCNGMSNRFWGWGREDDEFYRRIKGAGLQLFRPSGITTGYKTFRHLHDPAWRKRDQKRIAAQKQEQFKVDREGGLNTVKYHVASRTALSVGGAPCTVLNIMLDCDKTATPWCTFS


Legend:
hβ4GalT7 (GST-β4GalT7) [1] = target: T1, hβ4GalT7 (GST-β4GalT7); assay: galactosyltransferase competition assay, HPLC-UV; assay type: biochemical; conditions: 0.5 mM 4-MUX, 1 mM UDP-Gal, 10 mM MnCl2, 100 mM sodium cacodylate pH 7.0, 37 °C; IC50 and Ki not determined
hβ4GalT7 (GST-β4GalT7) [2] = target: T1, hβ4GalT7 (GST-β4GalT7); assay: galactosyltransferase competition assay, HPLC-UV; assay type: biochemical
Text: galactosyltransferase competition assay, HPLC-UV on hβ4GalT7 (GST-β4GalT7)

[3] = substrate: Cc1cc(=O)oc2cc(O[C@@H]3OC[C@@H](O)[C@H](O)[C@H]3O)ccc12; assay: galactosyltransferase assay, HPLC-UV; assay type: biochemical, Homo sapiens; conditions: apparent, fixed 1 mM UDP-Gal, 10 mM MnCl2, 100 mM sodium cacodylate pH 7.0, 37 °C
Text: (§1) galactosyltransferase assay, HPLC-UV on hβ4GalT7 (GST-β4GalT7)

[4] = substrate: O=c1ccn([C@@H]2O[C@H](COP(=O)(O)OP(=O)(O)O[C@H]3O[C@H](CO)[C@H](O)[C@H](O)[C@H]3O)[C@@H](O)[C@H]2O)c(=O)[nH]1; assay: galactosyltransferase assay, HPLC-UV; assay type: biochemical, Homo sapiens; conditions: apparent, fixed 5 mM 4-MUX, 10 mM MnCl2, 100 mM sodium cacodylate pH 7.0, 37 °C
Text: as §1

% decrease of activity at the highest concentration (5 mM) (hβ4GalT7 (GST-β4GalT7) [1])	IC50 (hβ4GalT7 (GST-β4GalT7) [2])	Ki (hβ4GalT7 (GST-β4GalT7) [2])	Molecule	Km [3]	kcat [3]	kcat/Km [3]	Km [4]	kcat [4]	kcat/Km [4]
< 25%			O[C@H]1[C@H](Oc2ccc3ccccc3c2)OCC[C@@H]1O [4H-Xyl-NP, Naphthyl-4-deoxy-β-D-xylopyranoside]						
	1280 ± 220 µM	530 ± 100 µM	Cc1cc(=O)oc2cc(O[C@@H]3OCC[C@H](O)[C@H]3O)ccc12 [4H-Xyl-MU, 4-Methylumbelliferyl-4-deoxy-β-D-xylopyranoside]						
			hβ4GalT7 (GST-β4GalT7) (Homo sapiens; H195R) (protein, truncated soluble form lacking the first 60 N-terminal amino acids (transmembrane domain and part of stem), GST fusion (tag kept), pET-41a(+), E. coli BL21(DE3), glutathione-Sepharose purified) VRGQGQETSGPPRACPPEPPPEHWEEDASWGPHRLAVLVPFRERFEELLVFVPHMRRFLSRKKIRHHIYVLNQVDHFRFNRAALINVGFLESSNSTDYIAMHDVDLLPLNEELDYGFPEAGPFHVASPELHPLYRYKTYVGGILLLSKQHYRLCNGMSNRFWGWGREDDEFYRRIKGAGLQLFRPSGITTGYKTFRHLHDPAWRKRDQKRIAAQKQEQFKVDREGGLNTVKYHVASRTALSVGGAPCTVLNIMLDCDKTATPWCTFS	350 ± 30 µM	1.49 ± 0.0217 s⁻¹	4030 M⁻¹ s⁻¹	320 ± 20 µM	1.49 ± 0.0217 s⁻¹	4920 M⁻¹ s⁻¹
			hβ4GalT7 (GST-β4GalT7) (Homo sapiens) (protein, truncated soluble form lacking the first 60 N-terminal amino acids (transmembrane domain and part of stem), GST fusion (tag kept), pET-41a(+), E. coli BL21(DE3), glutathione-Sepharose purified) VRGQGQETSGPPRACPPEPPPEHWEEDASWGPHRLAVLVPFRERFEELLVFVPHMRRFLSRKKIRHHIYVLNQVDHFRFNRAALINVGFLESSNSTDYIAMHDVDLLPLNEELDYGFPEAGPFHVASPELHPLYHYKTYVGGILLLSKQHYRLCNGMSNRFWGWGREDDEFYRRIKGAGLQLFRPSGITTGYKTFRHLHDPAWRKRDQKRIAAQKQEQFKVDREGGLNTVKYHVASRTALSVGGAPCTVLNIMLDCDKTATPWCTFS	350 ± 20 µM	1.51 ± 0.0383 s⁻¹	4170 M⁻¹ s⁻¹	220 ± 20 µM	1.51 ± 0.0383 s⁻¹	7080 M⁻¹ s⁻¹
			hβ4GalT7 (GST-β4GalT7) (Homo sapiens; R226K) (protein, truncated soluble form lacking the first 60 N-terminal amino acids (transmembrane domain and part of stem), GST fusion (tag kept), pET-41a(+), E. coli BL21(DE3), glutathione-Sepharose purified) VRGQGQETSGPPRACPPEPPPEHWEEDASWGPHRLAVLVPFRERFEELLVFVPHMRRFLSRKKIRHHIYVLNQVDHFRFNRAALINVGFLESSNSTDYIAMHDVDLLPLNEELDYGFPEAGPFHVASPELHPLYHYKTYVGGILLLSKQHYRLCNGMSNRFWGWGKEDDEFYRRIKGAGLQLFRPSGITTGYKTFRHLHDPAWRKRDQKRIAAQKQEQFKVDREGGLNTVKYHVASRTALSVGGAPCTVLNIMLDCDKTATPWCTFS	460 ± 10 µM	1.35 ± 0.0483 s⁻¹	2920 M⁻¹ s⁻¹	290 ± 20 µM	1.35 ± 0.0483 s⁻¹	4700 M⁻¹ s⁻¹
			hβ4GalT7 (GST-β4GalT7) (Homo sapiens; Y199F) (protein, truncated soluble form lacking the first 60 N-terminal amino acids (transmembrane domain and part of stem), GST fusion (tag kept), pET-41a(+), E. coli BL21(DE3), glutathione-Sepharose purified) VRGQGQETSGPPRACPPEPPPEHWEEDASWGPHRLAVLVPFRERFEELLVFVPHMRRFLSRKKIRHHIYVLNQVDHFRFNRAALINVGFLESSNSTDYIAMHDVDLLPLNEELDYGFPEAGPFHVASPELHPLYHYKTFVGGILLLSKQHYRLCNGMSNRFWGWGREDDEFYRRIKGAGLQLFRPSGITTGYKTFRHLHDPAWRKRDQKRIAAQKQEQFKVDREGGLNTVKYHVASRTALSVGGAPCTVLNIMLDCDKTATPWCTFS	590 ± 60 µM	1.2 ± 0.0967 s⁻¹	1880 M⁻¹ s⁻¹	320 ± 20 µM	1.2 ± 0.0967 s⁻¹	4050 M⁻¹ s⁻¹
			hβ4GalT7 (GST-β4GalT7) (Homo sapiens; R270A) (protein, truncated soluble form lacking the first 60 N-terminal amino acids (transmembrane domain and part of stem), GST fusion (tag kept), pET-41a(+), E. coli BL21(DE3), glutathione-Sepharose purified) VRGQGQETSGPPRACPPEPPPEHWEEDASWGPHRLAVLVPFRERFEELLVFVPHMRRFLSRKKIRHHIYVLNQVDHFRFNRAALINVGFLESSNSTDYIAMHDVDLLPLNEELDYGFPEAGPFHVASPELHPLYHYKTYVGGILLLSKQHYRLCNGMSNRFWGWGREDDEFYRRIKGAGLQLFRPSGITTGYKTFRHLHDPAWRKRDQKAIAAQKQEQFKVDREGGLNTVKYHVASRTALSVGGAPCTVLNIMLDCDKTATPWCTFS	600 ± 20 µM	0.773 ± 0.0033 s⁻¹	1200 M⁻¹ s⁻¹	270 ± 10 µM	0.773 ± 0.0033 s⁻¹	3070 M⁻¹ s⁻¹
			hβ4GalT7 (GST-β4GalT7) (Homo sapiens; H195A) (protein, truncated soluble form lacking the first 60 N-terminal amino acids (transmembrane domain and part of stem), GST fusion (tag kept), pET-41a(+), E. coli BL21(DE3), glutathione-Sepharose purified) VRGQGQETSGPPRACPPEPPPEHWEEDASWGPHRLAVLVPFRERFEELLVFVPHMRRFLSRKKIRHHIYVLNQVDHFRFNRAALINVGFLESSNSTDYIAMHDVDLLPLNEELDYGFPEAGPFHVASPELHPLYAYKTYVGGILLLSKQHYRLCNGMSNRFWGWGREDDEFYRRIKGAGLQLFRPSGITTGYKTFRHLHDPAWRKRDQKRIAAQKQEQFKVDREGGLNTVKYHVASRTALSVGGAPCTVLNIMLDCDKTATPWCTFS	640 ± 20 µM	1.932 ± 0.162 s⁻¹	3000 M⁻¹ s⁻¹	400 ± 20 µM	1.932 ± 0.162 s⁻¹	4850 M⁻¹ s⁻¹
			hβ4GalT7 (GST-β4GalT7) (Homo sapiens; R226A) (protein, truncated soluble form lacking the first 60 N-terminal amino acids (transmembrane domain and part of stem), GST fusion (tag kept), pET-41a(+), E. coli BL21(DE3), glutathione-Sepharose purified) VRGQGQETSGPPRACPPEPPPEHWEEDASWGPHRLAVLVPFRERFEELLVFVPHMRRFLSRKKIRHHIYVLNQVDHFRFNRAALINVGFLESSNSTDYIAMHDVDLLPLNEELDYGFPEAGPFHVASPELHPLYHYKTYVGGILLLSKQHYRLCNGMSNRFWGWGAEDDEFYRRIKGAGLQLFRPSGITTGYKTFRHLHDPAWRKRDQKRIAAQKQEQFKVDREGGLNTVKYHVASRTALSVGGAPCTVLNIMLDCDKTATPWCTFS	440 ± 50 µM	0.893 ± 0.0333 s⁻¹	1870 M⁻¹ s⁻¹	340 ± 30 µM	0.893 ± 0.0333 s⁻¹	2850 M⁻¹ s⁻¹
			hβ4GalT7 (GST-β4GalT7) (Homo sapiens; R270K) (protein, truncated soluble form lacking the first 60 N-terminal amino acids (transmembrane domain and part of stem), GST fusion (tag kept), pET-41a(+), E. coli BL21(DE3), glutathione-Sepharose purified) VRGQGQETSGPPRACPPEPPPEHWEEDASWGPHRLAVLVPFRERFEELLVFVPHMRRFLSRKKIRHHIYVLNQVDHFRFNRAALINVGFLESSNSTDYIAMHDVDLLPLNEELDYGFPEAGPFHVASPELHPLYHYKTYVGGILLLSKQHYRLCNGMSNRFWGWGREDDEFYRRIKGAGLQLFRPSGITTGYKTFRHLHDPAWRKRDQKKIAAQKQEQFKVDREGGLNTVKYHVASRTALSVGGAPCTVLNIMLDCDKTATPWCTFS	540 ± 70 µM	0.812 ± 0.025 s⁻¹	1420 M⁻¹ s⁻¹	370 ± 20 µM	0.812 ± 0.025 s⁻¹	2320 M⁻¹ s⁻¹
			hβ4GalT7 (GST-β4GalT7) (Homo sapiens; Y196F) (protein, truncated soluble form lacking the first 60 N-terminal amino acids (transmembrane domain and part of stem), GST fusion (tag kept), pET-41a(+), E. coli BL21(DE3), glutathione-Sepharose purified) VRGQGQETSGPPRACPPEPPPEHWEEDASWGPHRLAVLVPFRERFEELLVFVPHMRRFLSRKKIRHHIYVLNQVDHFRFNRAALINVGFLESSNSTDYIAMHDVDLLPLNEELDYGFPEAGPFHVASPELHPLYHFKTYVGGILLLSKQHYRLCNGMSNRFWGWGREDDEFYRRIKGAGLQLFRPSGITTGYKTFRHLHDPAWRKRDQKRIAAQKQEQFKVDREGGLNTVKYHVASRTALSVGGAPCTVLNIMLDCDKTATPWCTFS	1060 ± 60 µM	0.5 ± 0.0183 s⁻¹	467 M⁻¹ s⁻¹	340 ± 60 µM	0.5 ± 0.0183 s⁻¹	1470 M⁻¹ s⁻¹
			hβ4GalT7 (GST-β4GalT7) (Homo sapiens; H195Q) (protein, truncated soluble form lacking the first 60 N-terminal amino acids (transmembrane domain and part of stem), GST fusion (tag kept), pET-41a(+), E. coli BL21(DE3), glutathione-Sepharose purified) VRGQGQETSGPPRACPPEPPPEHWEEDASWGPHRLAVLVPFRERFEELLVFVPHMRRFLSRKKIRHHIYVLNQVDHFRFNRAALINVGFLESSNSTDYIAMHDVDLLPLNEELDYGFPEAGPFHVASPELHPLYQYKTYVGGILLLSKQHYRLCNGMSNRFWGWGREDDEFYRRIKGAGLQLFRPSGITTGYKTFRHLHDPAWRKRDQKRIAAQKQEQFKVDREGGLNTVKYHVASRTALSVGGAPCTVLNIMLDCDKTATPWCTFS	550 ± 20 µM	1.62 ± 0.04 s⁻¹	2950 M⁻¹ s⁻¹	330 ± 20 µM	1.62 ± 0.04 s⁻¹	4920 M⁻¹ s⁻¹
